Data: paper doi:10.1101/2021.11.26.470043

Biological target: ACE-2 receptor on the surface of Vero-E6 cells (African green monkey (endogenous in Vero-E6))
Experiment: flow cytometry on cells

| Substance | percent of cells bound to RBD [%] |
| --- | --- |
| commercially available recombinant RBD (from UniProt P0DTC2) (domain or fragment) | 78 |
| recombinant SARS-CoV-2 RBD (Pro330-Ser530) expressed in Sf9 insect cells (from UniProt P0DTC2 330-530) (domain or fragment) | 60 |
